In the DeepSol protein solubility set:

experiment: soluble on expression in E. coli; label from the status in PepcDB or PDB records

**Q.** With “GAMGSMATRIAILGAGPSGMAQLRAFQSAQEKGAEIPELVCFEKQADWGGQWNYTWRTGLDENGEPVHSSMYRYLWSNGPKECLEFADYTFDEHFGKPIASYPPREVLWDYIKGRVEKAGVRKYIRFNTAVRHVEFNEDSQTFTVTVQDHTTDTIYSAAFDYVVCCTGHFSTPYVPEFEGFEKFGGRILHAHDFRDALEFKDKTVLLVGSSYSAEDIGSQCYKYGAKKLISCYRTAPMGYKWPENWDERPNLVRVDTENAYFADGSSEKVDAIILCTGYIHHFPFLNDDLRLVTNNRLWPLNLYKGVVWEDNPKFFYIGMQDQWYSFNMFDAQAWYARDVIMGRLPLPSKEEMKADSMAWREKELTLVTAEEMYTYQGDYIQNLIDMTDYPSFDIPATNKTFLEWKHHKKENIMTFRDHSYRSLMTGTMAPKHHTPWIDALDDSLEAYLSDKSEIPVAKEA” as the sequence, how does the “soluble on expression in E. coli” value read?
**A.** soluble

**Q.** With “MLLQNILPFAHCLLRKALPEGGNALDGTAGNGHDTLFLAQTAGIRGKVWAFDIQPQALNNTRCRLQEAGYSNVRLILDGHENLKQYIPKPLDAAIFNFGWLPGGDKSLTTRTETSIAALSATLSLLKENGMLIAVLYPGHENGKQEAEAIEQWAKNLPQEQFAVLRYGFTNRKNSPPYLLVFEKLRQKLEHHHHHH” as the sequence, how does the “soluble on expression in E. coli” value read?
**A.** soluble

**Q.** For “LKQRRKIANEVKIKNTLLEYAQQITQMGTFEYNVFTNTLFWSNEMYNIFELDRSVIPEINFIDSLIKEESEITHNRRKKNFQPGASYSDELKIRTVNGNEKVLISNGYVVNEENGLVVHGAIIDIT”, which “soluble on expression in E. coli” value is on record?
**A.** not soluble

**Q.** For “MSLKRLTSRRQKGGGCPDLTIRAHHLLCMRGFQGYGYSEEFTENLARIIHEIKGNPSAFLMIVDFPDDICRACPFMDGLRCLRDEERIRSMDRRVLELLKLESGCMVTFHDIEDALLALITSGKIMEICGECSWMDLCLIHREGHHHHHH”, which “soluble on expression in E. coli” value is on record?
**A.** not soluble

**Q.** For “MGSDKIHHHHHHMPHPYHERLNFKTELPLRVISHGTVGPKMVLPHWHRAVELAYAYRGQPGTAHIGRSTYHMLADHLYVINSEVVHSYETFLDEDNQIVTLLLPASWLRNAVADEQLPIWGPLDLDLQSAVYQPLAKAVQTLVAGVITPSSARSAYLTSLGAEYQLVGQLLKHLTVNGQVTSDQLPLPAPLRQAVTELQENYAQPVSIANLAEQLNYSSVYFSRYFKDYMGISPKAYLGQIRLERATSLLMTSQDSIQNIALKTGFSTEKNFFVTFKQYYQMTPRTYRQRYSAQQSWS”, which “soluble on expression in E. coli” value is on record?
**A.** not soluble

**Q.** Which “soluble on expression in E. coli” value does the source give for “MGSDKIHHHHHHMRVSQRVVMSMTTPIDQFKGKQLDIINWWRRYPDKQTIIADGAVRSGKTFAMSISYVLWSMIVFDREQFGIAGKTIGSLRRNVIRPLKQTLQQVGFSVVDRRSENMLEISLDGRTNLYYLFGGKDESSQDLIQGITLAGMFFDEAALMPQSFVNQATARVSVTGGKYWFNMNPEGPYHWFKTDWIDQADDKRALRLHFVMTDNPSLSDEVIDRYEHMYSGVFYQRYILGQWVLADGIVYDNFDKDEMVSNPSQQPSRYYVSVDYGTQNPTVFLLWGKCGSVWYCLKEYYYDGRHSSRQKTDDEYARDFSQFVGDIRCEVIVDPSAASFIVKLRERRYRVIKADNDVLNGIRETQTAMNSGEIKFTPGLTNLFKEFASYVWDDKASQKGEDKVVKAHDHAMDAMRYFVMQVIKRRNAAHTFKNTSKYF” here?
**A.** not soluble

**Q.** With “MGSDKIHHHHHHMSHITDIAYKNWIVELKSKIRSSQVKASLAINAALIEFYWDLGKMIAEKQTAWGTKFIEQVSHDLQVEFPEMKGLSTTNLKYCRSFYLFYQNAIGQQAVAQLPVTPNVQQGVGEISQQSVDQLQHIEKQVNVFGQQFVAQIPWGHNILIFTKSKSYTEAQFYLQQTISNAWGRETLALQIKSQLFERQGKAITNFKQTLPEPLSDLAQQTLKDPYNFDFVNMAGTMKEKDLEKQLITHISKFLLELGKGFAFVGQQYHLEIAENDYYLDLLFYHIKLKCYVVIELKNTKFVPEYTGKMNFYLSAVDTLLKQDDDKPTIGILLCRDKNNIEAEFALRDINKPIGISEFSFTEILPENLKSSLPTVEELENELQHLTNDTDEN” as the sequence, how does the “soluble on expression in E. coli” value read?
**A.** not soluble

**Q.** Which “soluble on expression in E. coli” value does the source give for “MGSDKIHHHHHHDMNKLDSDYSVYTDYDNSVHFNEFSTYYLPDSILVPDNSLKANYWKDENAQNIISAVAHEMEQKGYVRTEDKEKANVGIQLSYAQQRIQMTTGGWYGGWWDAGFWGPYWGGGWYYPYPVTYSYDTGTLIMEMVDLRQPADKSNQNKLPVIWHAYASGLLYGNSHFNMQLTLNAVNQAFAQSPYLSNKQ” here?
**A.** not soluble

**Q.** Which “soluble on expression in E. coli” value does the source give for “MSLCRWAAYHGTPIFLEDVISRPGHSLIAQSAHAEECKTATNGDGFGVAWYDARPEPGLYRDVYPAWSDPNLRAVAHHVRSGLFLSHVRASTGSCISRNNCHPFAARRWCFMHNGQVGGFEAFRKQADMAIADEFYTYRKGSTDSEVLFLLALSEGLEHDPHGALARAIARLEGLSRAHGTTPHMRLSAAFSDGQTLYAARYSSDHIAPSVYYRYSHARQGWAVVSEPLETDEGDWTELRPGRMLTIGAEGAAERDFAPADLGRAAEGHHHHHH” here?
**A.** soluble

**Q.** With “MVRVKICGITNLEDALFSVESGADAVGFVFYPKSKRYISPEDARRISVELPPFVFRVGVFVNEEPEKILDVASYVQLNAVQLHGEEPIELCRKIAERILVIKAVGVSNERDMERALNYREFPILLDTKTPEYGGSGKTFDWSLILPYRDRFRYLVLSGGLNPENVRSAIDVVRPFAVDVSSGVEAFPGKKDHDSIKMFIKNAKGL” as the sequence, how does the “soluble on expression in E. coli” value read?
**A.** soluble

**Q.** Which “soluble on expression in E. coli” value does the source give for “MAHHHHHHMLLKALKASFEANKRVYESVLLTFKGVDGYDVYNCSVPFSYKGKTHIYGRVEKRDIWAASHVRLFEETGKDEFTAVPELSWELEDPYIAKINNEMIFGGTRVRKNGNAILSYYGYFYRGTPVELNYFTTGPDYMKDIRVVPLQDGRLGVFSRVRTRAEVYVGFSTVDTIDHLTTEVIATAKAIDFIRPGTWGGVNQAYLLSSGKIGCIGHFAYNDTKPSGEPLMVYINISFVFDAETRQLDTEHVIGTKSCYPACPAKLPVLEDCVFASGIVMRSDGKCDLYSGLGDTHEGRITIDYPFHGYGNIVGQMIF” here?
**A.** not soluble

**Q.** For “MNEKNIKHSQNFITSKHNIDKIMTNIRLNEHDNIFEIGSGKGHFTLELVQRCNFVTAIEIDHKLCKTTENKLVDHDNFQVLNKDILQFKFPKNQSYKIFGNIPYNISTDIIRKIVFDSIADEIYLIVEYGFAKRLLNTKRSLALFLMAEVDISILSMVPREYFHPKPKVNSSLIRLNRKKSRISHKDKQKYNYFVMKWVNKEYKKIFTKNQFNNSLKHAGIDDLNNISFEQFLSLFNSYKLFNK”, which “soluble on expression in E. coli” value is on record?
**A.** soluble

**Q.** With “MKKMHVESEFAPLRSVVLAQSQFCLPDKFDEADTTFLTEENARLTQNNEGRDLADFAPEQQVRWEKEKEVMQGVLESYGVEVFRPRLLTTYEKEHGKELGVGYSNFFSRDPFFTIGNLLIEGNLRFQHRRQEILPIRPIIQQWTQEAEGYYFAAPQPDISEGALSEAGPFIEGGDVLVLGKTIFVGYSGLASNLAGIQWLANMIGHFGYEVVPVRLHPHILHLDCALSLLREGLMIVCEEAFLDGLPAQLANWEKIHVTLQEAAYLVTNGLPLNEETYITDQSFTTLIPQIEAKGIKVEAIDYHVSRMLGGSFRCTTQALIRE” as the sequence, how does the “soluble on expression in E. coli” value read?
**A.** not soluble

**Q.** Which “soluble on expression in E. coli” value does the source give for “MKSERILVVKTEDFLKEFGEFEGFMRVNFEDFLNFLDQYGFFRERDEAEYDETTKQVIPYVVIMDGDRVLITKRTTKQSEKRLHNLYSLGIGGHVREGDGATPREAFLKGLEREVNEEVDVSLRELEFLGLINSSTTEVSRVHLGALFLGRGKFFSVKEKDLFEWELIKLEELEKFSGVMEGWSKISAAVLLNLFLTQN” here?
**A.** not soluble

**Q.** Which “soluble on expression in E. coli” value does the source give for “MGSDKIHHHHHHMTSSAPLIDFAHDLRYEDIPVHVRSIVREQIIATVGSILGGAQLPVAKSFEQSILATFGRGESSAFGAGTGMSAASAALYNSGLAQLLDWEDWVLISHVGAAVVPVAWALAEERGLRLNDVIVAVTIGNEIAGRTSRAIQRGAYLGNGLPNHQIELPLVAGRLLGLDRRQLGYALGHSCYMAMENCPVGWTTDSKLLVNGLPAMWAIASANMARQDIVGRGDIVEHPAGYLATVSESIDFKELTRDIGVKWYTETLSTKKHAGCAYNLPAAECAMSIREEIAPEDVERIVVECSTATLYVGGRYDDFEPGVLDAYEQGLLTHVGLCFDTKFCVAAAYVHGDLIHEQYLVENATDARVKALYGKISLVPSERLQKAQFQDFKYGATVTVHGRDGRTATRTVEQMLGGYDRPFDHATKLADGARGLLPPEAVDGIVARLRDETGNPLASEISTLINGAP” here?
**A.** not soluble

**Q.** With “MGSDKIHHHHHHMIKILVDNTAYKKFFAQHGFSALIEINNKRILFDAGQNSITLRENLRLFNEKEGFDYIVLSHGHYDHCDGLKYVIENDLINGKVIAHKDAFLDKYAGNRYIGIDEEIKEYLLKKADLEIIEEPYKIDKDIIVSGYVPREYEYEMEEFQCIKDGKRVKDEVNDDMFLIAKGILITGCSHSGIINVVEYGKKLSEIKGVLGGFHLVGVSDNYLNRIVDYFKSQDFWIMPMHCTGFKALTKLSQLNNFVYGHVGKIIGI” as the sequence, how does the “soluble on expression in E. coli” value read?
**A.** not soluble

**Q.** For “MFSYHELITIESVARLGSFSQAADELHKVPSAISYTIKSVEDRLTVVLFTRLHRRVELTAAGTYFVDQARKLLKDMEEIRFNTQRVANGWQQSVSVALDNVVRENSVNQLVRDFYATFPDIELQLTMEVFNGVWDALMTGRADIGIGATATIPIGGDFSYRPMGELAWDFIVSINHPLASFEHDIPNEELVKYPAICLEDTSQILPKRSTWLLDNQRRLIVPNWHSAEQCFIDGLGVGVIPNHRAKRLLETGQVISKKIEHHIAPSPCCLAWNNNNQSVAIQWLLDYLGDSDKLNSEWLKEF”, which “soluble on expression in E. coli” value is on record?
**A.** not soluble

**Q.** For “MSLKQYLITGGTGMVGSQLVNEIKKSDSHITILTRHDQISNDKKISYVNWAKSGWEHKVPQNIDVVINLAGATLNKRWTPEYKQTLMLSRIQSTQALYELFKSRNKAPKVLFNASATGYYPPDLFMSYTEVYKTLPFDFLSDIVYQWERFAQQFEQLGTRVVIGRFGMILSNEGGALQTMKLPYKYYIGGKLGSGQQWYSWIHINDLIQAILFLINNESASGPFNLTAPIPERQNLFGYTLARAMHKPHETWAPSLAMRLILGQMSTVVLDTQKVLPNKIQALGFQFKYSNLKMALEDLIKEGHHHHHH”, which “soluble on expression in E. coli” value is on record?
**A.** soluble

**Q.** With “MPLRQDLTPVVITVTGADRHGVTAATFRVLSANNVQILDVEQSKFRGFLSIAVYAGIKASMIDSVEQGLRDTLSVHGQSVSLSVESRTEVSRPRSTHVVVILGNPVGAEDIWKIGQTMADFGANIDGIRGISDYPVTGLELRVTVADPAPGAAEPLRKALAALTTELGVDIVIERAGLQR” as the sequence, how does the “soluble on expression in E. coli” value read?
**A.** not soluble

**Q.** Which “soluble on expression in E. coli” value does the source give for “MSDRVIIAGGGIGGLASALTLHQIGVPCVVYEAAREMRPLGVGINLQPNAVRELLDLGITEADLDGVGLPAKEWALVGLNGNDIYAEPRGKAAGYRWPQYAVHRGRFHMLLNDKVIERLGADAVQLGRRVTSYRKTADGVVATVEHADGGTSEVSGALLIGADGIHSAVRAQMHPNQPPIHWGGAVMWRGTTWGKPTRSGASFIGLGTHRHRVVIYPISHPDPATGLSMLNWIAEVTLDNAEGWKQQGWFRQVPTSEFAHHFDGWVWDWLDVPAMIREADSAYENPMIDRDPVATWRDGPVVLIGDAAHAMYPTGSNGGTQAIVDARELGAAMVAHGATEAALAAFDAKLCGPISQLILRNRGAGPFGLLNLVDERCGGTFDNIDDVIPPAERAAFMAGYKAAAGFAIDHLNAAPPTIAPGARVKESAAALEHHHHHH” here?
**A.** not soluble

**Q.** With “ALEEVVRYLGPHNEIPLTLTRDSETGHFLLKHFLPILQQYHDTGNINETNPDSFPTDEERNKLLAHYGIAVNTDDRGELWIELEKCLQLLNMLNLFGLFQDAFEFEEPETDQDEEDPSHSKLPEN” as the sequence, how does the “soluble on expression in E. coli” value read?
**A.** soluble
